The data set is described as follows: soluble on expression in E. coli; label from the status in PepcDB or PDB records.
As to “MSLSKKFYPNSQAFLLEKKDLKTIDRKINANKGNFGHIYIVANASAGTLAGLGALNFGAGLVSLVAQKSFSPLLMLKEKIENNASAIALGMGLENLDFLKDEILQNTPLILDANCFLSEALLWYLNRKDVVITPHPKEFIKLYKMCFDENLDIETLQKNRFFYARKFSQNYDCVLVLKGANPIIVQKEKLFVVNLGNQALAKGGSGDVLSGMIAAHLGFGFSALEAAKNATLAHGLVAKKYKFNKNSFDALKLIKGLKCLEGHHHHHH”, the “soluble on expression in E. coli” value is reported as “not soluble”.
Then “MSLSKREEWAQGFILNLQSGYTQGTVGFGLDAMGMLGVKLDSGRGRSGTGLLPKDSDGRAPDTYSKLGLTAKVKVSQSELKVGTLIPKLPSVQPNNGRIFPQIFEGALLTSKEIKDLGFTAGRLEKTKIRDSSDSEDLALNDKNGRFAGVSADHFDLGGLDYKLTDQLTASYHYSNLQDVYRQHFVGLLHSWPIGPGELTSDLRFARSTDSGSAKAGGIDNKSLNGMFTYSLGNHAFGAAWQRMNGDDAFPYLEGSNPYLVNFVQVNDFAGPKERSWQLRYDYDFVGLGIPGLTFMTRYVKGDNVELAGQSGEGREWERNTELQYVFQSGALKNLGIRWRNATFRSNFTRDIDENRLIVSYTLPIWEGHHHHHH”, with “not soluble”; and “MSLSKTRTFLFDLYGVLIKEHGAAQFERVARAVGEPSKNDKLHEVYESLRLDLDAGRVSEVNYWNQIKLLVGLEFLDIQEVIAADYRGLYERDQDMVDYVLSLKAKGHRIGILSNIPEGLAKLLKEHNSEWLDQLDAVTLSCDIGAAKPEPKSFHVALEALGEKAEDVTFIDDRVRNIEAAREEGLSTIHFTGLDSLKESIQEGHHHHHH”, with “soluble”; and “MSLSLVSQYIDLTEHFQNLIAVILKNPEKVWQMQLNYLEDALSLAQAQFNYWLEGKPLPINDQRFNGEDWINNPFFNLLSQHYLLANEHMNSLLENMEYGDENLAKRVRFFTRQYLDALSPANFIHTNPQLMAETLQSHGKNLLRGLHNLLSDVEAGSSRLIIKMTDTEAFKIGENLATTPGKVIFRNSMMELIQYCPRTTKAKSIPLLIVPPWINKYYILDLSPHNSLIRWLVEQGITVFIISWVNPDETYANKSFYDYLNEGPREAISVIQKQLRVKQVNTLGFCIGGTLLASLLAYNKATKDLSIRSATFLAAMIDFSDPGDIAVFIDEQQINKLEEEMKSKGYLAGKFMASSFNSLRANDLIWSFFIKNYLRGKSPVPFDILYWNADSTNMPATMHSQYLRWMYLHNNLIKPGKIRLNHIPVDVTNIDIPTFFLSTQKDHIAPWKTTYKGFELMKGPKRFVLGGSGHIAGIINPPTQQKYGYRTNNSMDLSAEQWFEKSKEHSGSWWPEWLNWLKLHSGRLINAPDINHLPFAPIMDAPGSYVLKKEGHHHHHH”, with “soluble”.
Then “MSLSNAEITHREGVKMLVVRPISMADYEALHTCAVESGHGFTSLPVDQELLTNRITHSEYSFSKPNVTMPGDEGYLMVGVDTETGQVAGTTGIEASIGWDVPFYSYHISTIVHSSPKLGVNNVVKLLTFGNNYTGCSEICTLFLRPQYRQGLNGRLMSKCRFLMMAEHSHRFSKTIFAEMRGVSDADGNSPFWKWLQEHFFSIDFTLADYLTGIGKKGFIADLMPKLPIYVNLLSKEAQAVIGQVHENTRPALVLLEKEGFTCRNYVDIFDAGPTVECELNNIESVRHSVRAIVEVAEHSSSQNFIMCNTSFENFRATAAKAAYSQEDNAVIISPKVAAALEVSTGDYLRILAQEGHHHHHH”, with “soluble”.
Then “MSLSNAMTSKLERFIDQGVGRVPADIVLKGGCFFDLVTGELVQSDIAIGADRIVGTSGNYEGETEIDISGRIVVPGFIDTHLHIESSLVTPHEFDRCVLPYGVTTAICDPHEIANVLGAAGIEFFLESALETIMDIRVQLSSCVPATHLETSGADLPIESLLPYRHHPKVIGLAEFMNFPGVIHKDPICMAKLDAFQGGHIDGHAPLLSGNDLNGYLAAGIRTEHECTTASEALEKIRKGVHILVREGSVSKDLAALMPIITERLSPFLALCTDDRNPLDIAEQGHLDHMIRTAIASRVEPLAIYRAASISAARAFGLKDRGLVAPGWRADLVVLDSLENCRADMVFSAGRRVTDALFSSRRPVAPIGLDSVKARPVNAAHFGVPVAEGETPVIGVIPGKIITEHRRYRLPVRGNEAAVDLANDIIKVAVIERHGKNGNHANGFVQGFGLKKGAIASTVGHDSHNICVVGVSEDDMARAANRLSEIKGGFVVVEDGKVTGEIALPIAGLMSLEPYETVRDTLHQLRKAAFALGATLEEPFLQLAFLPLPVIPHLKISDRGMVDVDKFALIGEGHHHHHH”, with “soluble”.

For the origin of these results see the DeepSol protein solubility set.
